According to patent publication US20240034762A1 (YALE UNIVERSITY, published 2024):

T1: full-length human α-Klotho with a C-terminal HA-tag on HEK293 cells stably co-expressing FGFR1c (human, UniProt Q9UEF7 34-1012)
T1 sequence: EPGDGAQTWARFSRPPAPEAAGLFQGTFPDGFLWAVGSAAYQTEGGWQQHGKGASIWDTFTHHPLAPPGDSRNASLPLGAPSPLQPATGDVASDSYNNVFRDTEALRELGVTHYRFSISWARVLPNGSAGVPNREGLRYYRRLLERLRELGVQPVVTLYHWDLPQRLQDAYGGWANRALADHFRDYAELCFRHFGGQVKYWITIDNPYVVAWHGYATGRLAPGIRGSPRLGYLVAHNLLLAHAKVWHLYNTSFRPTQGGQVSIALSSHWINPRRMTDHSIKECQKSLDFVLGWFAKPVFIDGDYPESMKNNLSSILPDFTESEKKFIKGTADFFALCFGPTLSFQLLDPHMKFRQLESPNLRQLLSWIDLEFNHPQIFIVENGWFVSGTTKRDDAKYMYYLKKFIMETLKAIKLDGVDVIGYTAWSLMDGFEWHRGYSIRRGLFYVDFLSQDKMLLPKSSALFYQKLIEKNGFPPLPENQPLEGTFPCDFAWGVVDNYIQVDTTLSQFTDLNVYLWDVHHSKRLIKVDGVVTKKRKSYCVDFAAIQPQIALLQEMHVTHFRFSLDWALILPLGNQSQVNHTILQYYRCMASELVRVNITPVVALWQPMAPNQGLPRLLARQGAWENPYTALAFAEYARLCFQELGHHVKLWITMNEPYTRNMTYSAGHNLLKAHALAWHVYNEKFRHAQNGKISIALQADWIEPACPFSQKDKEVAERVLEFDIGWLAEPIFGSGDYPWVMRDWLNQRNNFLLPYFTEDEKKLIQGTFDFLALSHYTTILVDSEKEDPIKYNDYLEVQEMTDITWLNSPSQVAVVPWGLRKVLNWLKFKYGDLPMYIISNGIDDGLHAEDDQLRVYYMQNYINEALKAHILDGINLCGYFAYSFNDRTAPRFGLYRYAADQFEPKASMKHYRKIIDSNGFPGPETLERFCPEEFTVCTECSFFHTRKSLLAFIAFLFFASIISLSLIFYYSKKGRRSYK

T2: soluble extracellular domain of human α-Klotho (aa 1-980) fused to a 6xHis tag (human, UniProt Q9UEF7 34-980)
T2 construct: Secreted from HEK293 EBNA cells; also called sKLA; soluble α-Klotho
T2 sequence: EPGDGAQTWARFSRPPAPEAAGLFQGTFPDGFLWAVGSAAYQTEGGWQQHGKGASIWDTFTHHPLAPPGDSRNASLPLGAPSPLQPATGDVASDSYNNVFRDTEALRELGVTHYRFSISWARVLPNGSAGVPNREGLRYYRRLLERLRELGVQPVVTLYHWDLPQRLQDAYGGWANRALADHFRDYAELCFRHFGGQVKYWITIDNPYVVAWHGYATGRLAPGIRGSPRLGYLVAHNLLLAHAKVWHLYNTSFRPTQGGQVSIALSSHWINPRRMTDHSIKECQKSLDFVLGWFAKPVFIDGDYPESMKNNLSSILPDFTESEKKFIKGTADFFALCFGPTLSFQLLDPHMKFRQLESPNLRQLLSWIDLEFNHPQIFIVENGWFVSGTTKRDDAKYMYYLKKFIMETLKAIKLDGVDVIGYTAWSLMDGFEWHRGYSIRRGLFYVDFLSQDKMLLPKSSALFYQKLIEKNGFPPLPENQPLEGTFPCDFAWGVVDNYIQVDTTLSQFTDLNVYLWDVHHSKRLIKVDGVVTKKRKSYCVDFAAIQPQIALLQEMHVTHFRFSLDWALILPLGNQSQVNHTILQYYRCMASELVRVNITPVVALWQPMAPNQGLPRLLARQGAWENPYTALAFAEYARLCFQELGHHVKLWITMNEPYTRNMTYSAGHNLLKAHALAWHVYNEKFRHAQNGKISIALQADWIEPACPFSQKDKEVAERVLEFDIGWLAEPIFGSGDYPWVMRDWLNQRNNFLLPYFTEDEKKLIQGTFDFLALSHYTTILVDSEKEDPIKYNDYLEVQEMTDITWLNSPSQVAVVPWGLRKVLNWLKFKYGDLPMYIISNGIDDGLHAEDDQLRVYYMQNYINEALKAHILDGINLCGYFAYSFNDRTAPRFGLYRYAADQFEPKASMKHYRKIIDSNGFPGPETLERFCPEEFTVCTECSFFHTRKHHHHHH


Key:
[1] = biological target: T1, full-length human α-Klotho with a …; assay: cell-based or functional assay
[2] = biological target: T2, soluble extracellular domain of human …; assay: BLI, FGF23 variant on the sensor, sKLA as analyte

| activation of MAPK response in HEK293 cells co-expressing FGFR1c and α-Klotho; ligand concentration at saturation [1] [nM] | Binder | binding result [2] |
| --- | --- | --- |
| 0.1 | human FGF23-R2 (aa 25-179 fused to aa 212-243) (ligand) YPNASPLLGSSWGGLIHLYTATARNSYHLQIHKNGHVDGAPHQTIYSALMIRSEDAGFVVITGVMSRRYLCMDFRGNIFGSHYFDPENCRFQHQTLENGYDVYHSPQYHFLVSLGAAKAAFLPGMNPPPYSQFLSRRNEIPLIHFNTPIPRQHTQSAEDNSPMASDPLGVVRGGRVNTHAGGTGPEG |  |
|  | human FGF23 D188A/D222A double mutant (ligand, also called D188A/D222A double mutations) DYKDDDDKYPNASPLLGSSWGGLIHLYTATARNSYHLQIHKNGHVDGAPHQTIYSALMIRSEDAGFVVITGVMSRRYLCMDFRGNIFGSHYFDPENCRFQHQTLENGYDVYHSPQYHFLVSLGAAKAAFLPGMNPPPYSQFLSRRNEIPLIHFNTPIPRQHTQSAEDDSERAPLNVLKPRARMTPAPASCSQELPSAEDNSPMASAPLGVVRGGRVNTHAGGTGPEGCRPFAKFI | no binding (tested: sKLA 6.25 nM to 200 nM) |
| 0.1 | human FGF23-R1 (aa 25-205) expressed in E. coli (ligand) YPNASPLLGSSWGGLIHLYTATARNSYHLQIHKNGHVDGAPHQTIYSALMIRSEDAGFVVITGVMSRRYLCMDFRGNIFGSHYFDPENCRFQHQTLENGYDVYHSPQYHFLVSLGAAKAAFLPGMNPPPYSQFLSRRNEIPLIHFNTPIPRQHTQSAEDDSERDPLNVLKPRARMTPAPAS |  |
